Laboratory results reported in patent US20060084097.

T1: 8-residue Cys-peptide (CHGSGAWL)
T1 chain: CHGSGAWL

T2: 8-residue Asp-peptide (DHGSGAWL)
T2 chain: CHSGAWL

T3: CysO3H-peptide
T3 chain: CHGSGAWL

B1: mouse ATE1-1 R-transferase C-terminally tagged with the polyoma and His6 epitopes (protein)
chain: MASWSAPSPSLVEYFEGQTSFQCGYCKNKLGSRSYGMWAHSMTVQDYQDLIDRGWRRSGKYVYKPVMDQTCCPQYTIRCHPLQFQPSKSHKKVLKKMLKFLAKGEISKGNCEDEPMDSTVEDAVDGDFALINKLDIKCDLKTLSDLKGSIESEEKEKEKSIKKEGSKEFIHPQSIEEKLGSGEPSHPIKVHIGPKPGKGADLSKPPCRKAREMRKERQRLKRMQQASAAASEAQGQPVCLLPKAKSNQPKSLEDLIFQSLPENASHKLEVRVVRSSPPSPQFRATFQESYQVYKRYQMVVHKDPPDKPTVSQFTRFLCSSPLEAEHPADGPECGYGSFHQQYWLDGKIIAVGVLDILPYCVSSVYLYYDPDYSFLSLGVYSALREIAFTRQLHEKTSQLSYYYMGFYIHSCPKMRYKGQYRPSDLLCPETYVWVPIEQCLPSLDNSKYCRFNQDPEAEDEGRSKELDRLRVFHRRSAMPYGVYKNHQEDPSEEAGVLEYANLVGQKCSERMLLFRHHHHHHH
B2: S. cerevisiae ATE1 Arg-tRNA-protein transferase C-terminally tagged with His6 (protein)
chain: MSDRFVIWAPSMHNEPAAKCGYCHGNKGGNMDQLFALDSWAHRYMNKMDVVKIENCTIGSFVEHMDVATYDRMCNMGFRRSGKFLYKVDPLRNCCRLYTIRTAPQELNMTKELKKCISRFATRITSEDYCPAAVASSDFVGKIVNAEMNSKTFYTRFEPALYSEEKYHLFVKYQEKVHQDYNNSPKSFKRFLCDTPFGPEAVLGTQESWEQLNNWQRMKPGEKLKHMGPVHECYYYEGKLIAITVSDILPSGISSVYFIWDPDYSKWSLGKLSALRDLAIIQRTNLQYYYLGYYIEDCPKMNYKANYGAEVLDVCHSKYIPLKPIQDMISRGKLFVIGEEETKVTKELYLVDSETGRGEGFPTDNVVKYKNIAEEIYGVGGCAFKSANESALELKELYGIPYEEEDLDTIYHLKEHNGHAPNGIPNVVPGLLPLWELLDIMQSGKITDLEGRLFLFEIETEGIRPLINFYSEPPNVKKRICDVIRLFGFETCMKAVILYSEQMHHHHHH

Tests used:
[1] = molecular target: Cys-RGS4 (X-RGS4-flag, X=Cys)
[2] = molecular target: T1, 8-residue Cys-peptide (CHGSGAWL)
[3] = molecular target: Asp-RGS4 (X-RGS4-flag, X=Asp)
[4] = molecular target: T2, 8-residue Asp-peptide (DHGSGAWL)
[5] = molecular target: Val-RGS4 (X-RGS4-flag, X=Val)
CysO3H-peptide = molecular target: T3, CysO3H-peptide

Protein | 3H-arginine conjugation (SDS-PAGE and fluorography) [1] | arginylation of peptide (capillary electrophoresis), pH 9.0 [2] | arginylation of peptide (capillary electrophoresis, MALDI-TOF MS), pH 7.5 [2] | 3H-arginine conjugation (SDS-PAGE and fluorography) [3] | arginylation of peptide (capillary electrophoresis, MALDI-TOF MS), pH 7.5 [4] | 3H-arginine conjugation (SDS-PAGE and fluorography) [5] | arginylation of peptide (capillary electrophoresis, MALDI-TOF MS), pH 7.5 (CysO3H-peptide) | arginylation of peptide (capillary electrophoresis) [2] | arginylation of peptide (capillary electrophoresis) [4] | arginylation of peptide (capillary electrophoresis) (CysO3H-peptide)
B1 | a virtually complete dependence of the in vitro arginylation of Cys-RGS4 on its prior exposure to a donor of NO | arginylation of Cys-peptide was undetectable even at pH 9.0, in contrast to arginylation of CysO3H-peptide and Asp-peptide | the Cys-peptide was not arginylated | Asp-RGS4 was efficiently arginylated irrespective of NO pretreatment | the Asp-peptide and the CysO3H-peptide were efficiently arginylated | Val-RGS4 was not arginylated | the Asp-peptide and the CysO3H-peptide were efficiently arginylated | – | – | –
B2 | – | – | – | – | – | – | – | Yeast R-transferase efficiently arginylated CysO3H-peptide, but not Cys-peptide | The same results were obtained when mouse ATE1-1 was replaced, in the above assays, with purified S. cerevisiae ATE1 R-transferase | Yeast R-transferase efficiently arginylated CysO3H-peptide, but not Cys-peptide
